Measured values reported in the domain aggregation screens of Martell et al. (2025).

Test: soluble fraction after stress (log2 fold change); higher = more stays soluble; pooled small domains, quantitative proteomics
Conditions: stress: 50 degC
Summary of the method: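 Pooled custom libraries of small protein domains were each held under stress at 50°C. The read-out, high-throughput quantitative proteomics, tracked how much of each protein stayed soluble. This is reported as a base-two log fold change used to indicate aggregation propensity. Higher values mean more protein remains in solution.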

**Q.** Which “soluble fraction (log2)” value does the source give for “HMHPLFRVVLAGEPNGVGLDDWLTRHEAELINGPSAIGVLTVKIAMGRRSFETVLDEIRADGETIFVEPV” here?
**A.** -2.66

**Q.** With “HMDDVGYLRKRLQQALAQLSDDLRNTYTLFQIGKQSIKQIAAETGASESLVKVRIHRAKQKLQELLADLQ” as the sequence, how does the “soluble fraction (log2)” value read?
**A.** -0.987

**Q.** Which “soluble fraction (log2)” value does the source give for “HMSSESIKTDKNVGVGSTLEELEKAYGSDYTLSGKMYRYYQDDNSKYMYFFILNDVVQYYGYGIDV” here?
**A.** -1.53

**Q.** With “HMVITDPFFLEPENLVKDAVALMEKYRISGVPITKKGKLVGILTNRDLRFESNYEQPIANVMS” as the sequence, how does the “soluble fraction (log2)” value read?
**A.** -0.0305

**Q.** For “HMPKLTKEEIQFIDNYLKNSGVEYIDTRAEVVDHVASEIESRLSANNTTNFYEEFKVYMVQHKETLLK”, which “soluble fraction (log2)” value is on record?
**A.** -0.49

**Q.** Which “soluble fraction (log2)” value does the source give for “HMTEELLNQRKETMLALLNDPTYVPMKLKELAMLLNLSRDQRDELREVMESLEQDGKVILTKRGKYKIP” here?
**A.** -0.269

**Q.** Which “soluble fraction (log2)” value does the source give for “HMAYSEEDRRRVREELLTTALKLMSTQGIQHTTVEQVYRSVGISRSFFYAFFPTKEDLIVEAL” here?
**A.** 0.117

**Q.** With “HMAATGPLTPREAEIARLAAGHLSNRQIAEQLVVSERTVENHLYRIFIKLAVTGRDDLAAALAATEQ” as the sequence, how does the “soluble fraction (log2)” value read?
**A.** -0.689

**Q.** For “HMQISGSEELEKIVQTVLEKNTDVVEEYKSGKTKVFAFLMGQVMKESRGKANPRLAKDILEKFLA”, which “soluble fraction (log2)” value is on record?
**A.** -0.0362

**Q.** Which “soluble fraction (log2)” value does the source give for “HMHADIAATVVATMRQLGVLGLPRNYEIFYEALSGTNRELSLAVVSLSNRPTQDDLDRIGRRFFA” here?
**A.** -0.785

**Q.** For “HMHRGTPASIIAAAKQYLTGGQTVELYEREGGPWTFRLRTYLSETPYPEKVRASVEALKPAGVVFLYELQS”, which “soluble fraction (log2)” value is on record?
**A.** -0.207

**Q.** With “HMGTGADKNSWTIGDKVKHRKWGTGTVVKVTGAGEDAELDIAFKSEGIKRLLAAFAPIEKVK” as the sequence, how does the “soluble fraction (log2)” value read?
**A.** -0.034

**Q.** With “HMATARPPPPPESRVEVLFDGRWYAGTVVGGALDEHRATVFFDADRLSQVINFAETGIRVLGT” as the sequence, how does the “soluble fraction (log2)” value read?
**A.** -0.0673

**Q.** Which “soluble fraction (log2)” value does the source give for “HMSFMFEISVIRSQYNMQDPESKTGFYNAIAKKLLEFPEKLERDNYTEAVAREYMIPETDLKNLVNSMGG” here?
**A.** -2.17

**Q.** With “HMGRKIDDPSSMTGAEKAAVILLALGDEQRQLWEMMDDEEIRVVSQAMVNLGNVTSGAVEKLIMEFVGSMS” as the sequence, how does the “soluble fraction (log2)” value read?
**A.** -0.243

**Q.** Which “soluble fraction (log2)” value does the source give for “HMTLPQEPTVLPRPLRVGDTVHIRTLDKDAEVLALPDARGMVAVRAGIINTKVKLTDLTLVEEK” here?
**A.** 0.179

**Q.** With “HMETGFADTLRKFRKEADMTQEKLAEALGVTTGAVYKWENGRSTPEVRLLVEMADLFGTSVDALLDYKVR” as the sequence, how does the “soluble fraction (log2)” value read?
**A.** -0.622

**Q.** With “HMRELSDFEKLLFTTTLERKMINLAMLLTRSNKADSKDLIQDSYLKAIENQVQFNGNNIDAWVITILKNTF” as the sequence, how does the “soluble fraction (log2)” value read?
**A.** 0.139

**Q.** For “HMYDPVNEIGRVLKKIRQERSLTLDNVAEITGVSKTMLGQIERGVSVPTISVLWKIAKGLQVSLSTLLNE”, which “soluble fraction (log2)” value is on record?
**A.** -0.826

**Q.** For “HMQPDYRVLYSNFSDKDGGAIVAALEKMNVPYKFSEGGSAILVPAGQVHQARLKLAADGLPK”, which “soluble fraction (log2)” value is on record?
**A.** 0.0409

**Q.** With “HMISKYLRIESDILSAIREGRLKPGDKLPGQSEMRRIYNVSAITVRKAFTDLINDGYLVGVRGSGTYVAKR” as the sequence, how does the “soluble fraction (log2)” value read?
**A.** -0.703

**Q.** With “HMSNIQLVENLYRLRKAHHYTQQEISDLLNISRQAYSNYETSKRTPDLDSLMRLADIYGVSLDQLVNHP” as the sequence, how does the “soluble fraction (log2)” value read?
**A.** -1.45

**Q.** Which “soluble fraction (log2)” value does the source give for “HMAEELELFHRLISVTGVGPKGALGFLSQLKPQEIILAILSDDVKTLSKAPGVGRKTAQRVILELKDKF” here?
**A.** -1.14

**Q.** For “HMKPTVKGHFTRKESNVGGYADVRGWGVAGTPSMMANQSKDTRRFSTLIVPGRSVNVHPSPTKEAIIWWQS”, which “soluble fraction (log2)” value is on record?
**A.** -0.0091

**Q.** For “HMNTEEKILEKEFLMLYSELGLQPKNIYELMENTGLKYEKLVEMLLQLQLKGLVEQPSYNYYSRL”, which “soluble fraction (log2)” value is on record?
**A.** -1.02

**Q.** With “HMLTDMSKIRKVLKLYGKGNSKLFISTYLSLSRNTVKKYISLFEVSGKTIEEILAKSDSELELLFSG” as the sequence, how does the “soluble fraction (log2)” value read?
**A.** -0.919

**Q.** With “HMTGEEVLIMLGEKMKLIRNYNGYSQRQIAEILKIERSTYASYETGRNRPDIFAVQRFAKIFNVSVDYIL” as the sequence, how does the “soluble fraction (log2)” value read?
**A.** -0.118

**Q.** Which “soluble fraction (log2)” value does the source give for “HMATTIEAPMPGKILDVKVNPGQAVSYGQVVLTMEAMKMETEIVAPADGTVASVLVKSGDMVETGAALVSL” here?
**A.** 0.0867

**Q.** For “HMHSPLLDRYLAEVGWRLRHLSGAQREDILAGLREHIADLESAGVAPEEIVARLGSPESVADAAAGEF”, which “soluble fraction (log2)” value is on record?
**A.** -0.334

**Q.** Which “soluble fraction (log2)” value does the source give for “HMRYWVKSETDFLIENRGKYSYQEFADMLGRSYAVVYDKMHQLKIDYTKEELEIFDEKHKAQMREKQQR” here?
**A.** -1.52
